Test results published in patent publication US20130130985A1.

How the values were obtained:
[1] = target: human oxytocin receptor (human) (UniProt P30559); assay: radioligand displacement (3H-OT), SPA beads, COS-1 membranes
[2] = target: human vasopressin V1b receptor (human) (UniProt P47901); assay: radioligand displacement (3H-AVP), WGA SPA beads, COS-1 membranes
[3] = target: human vasopressin V2 receptor (human) (UniProt P30518); assay: radioligand displacement (3H-AVP), filtration, HEK293 membranes
[4] = target: human vasopressin V1a receptor (human) (UniProt P37288); assay: radioligand displacement (125I-V1a linear antagonist), SPA beads, COS-1 membranes
[5] = target: human oxytocin receptor (human) (UniProt P30559); assay: cell-based or functional assay
[6] = target: human vasopressin V1a receptor (human) (UniProt P37288); assay: cell-based or functional assay
[7] = target: human vasopressin V1b receptor (human) (UniProt P47901); assay: cell-based or functional assay

Chain of human vasopressin V1a receptor (human) (P37288 whole entry): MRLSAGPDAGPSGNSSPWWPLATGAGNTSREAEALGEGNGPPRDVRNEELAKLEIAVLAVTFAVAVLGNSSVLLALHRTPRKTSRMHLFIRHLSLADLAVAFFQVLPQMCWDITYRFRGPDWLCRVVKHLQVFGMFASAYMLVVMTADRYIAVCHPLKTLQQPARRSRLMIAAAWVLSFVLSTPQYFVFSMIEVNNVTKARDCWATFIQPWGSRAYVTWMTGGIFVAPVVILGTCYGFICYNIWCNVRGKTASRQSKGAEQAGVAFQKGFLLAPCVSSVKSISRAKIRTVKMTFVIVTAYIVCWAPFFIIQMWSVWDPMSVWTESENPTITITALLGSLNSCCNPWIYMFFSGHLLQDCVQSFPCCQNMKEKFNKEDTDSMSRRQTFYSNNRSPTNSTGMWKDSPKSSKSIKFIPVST
Chain of human oxytocin receptor (human) (P30559 whole entry): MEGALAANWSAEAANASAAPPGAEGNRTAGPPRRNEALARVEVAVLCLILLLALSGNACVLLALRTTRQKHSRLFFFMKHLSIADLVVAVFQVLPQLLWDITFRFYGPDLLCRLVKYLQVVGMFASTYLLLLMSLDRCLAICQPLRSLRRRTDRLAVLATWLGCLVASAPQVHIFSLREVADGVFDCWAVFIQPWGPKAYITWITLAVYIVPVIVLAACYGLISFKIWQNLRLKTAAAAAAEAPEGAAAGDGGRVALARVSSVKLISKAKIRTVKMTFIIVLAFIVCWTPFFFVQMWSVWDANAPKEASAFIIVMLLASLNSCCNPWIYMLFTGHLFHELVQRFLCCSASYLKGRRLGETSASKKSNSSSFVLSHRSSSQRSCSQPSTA
Chain of human vasopressin V1b receptor (human) (P47901 whole entry): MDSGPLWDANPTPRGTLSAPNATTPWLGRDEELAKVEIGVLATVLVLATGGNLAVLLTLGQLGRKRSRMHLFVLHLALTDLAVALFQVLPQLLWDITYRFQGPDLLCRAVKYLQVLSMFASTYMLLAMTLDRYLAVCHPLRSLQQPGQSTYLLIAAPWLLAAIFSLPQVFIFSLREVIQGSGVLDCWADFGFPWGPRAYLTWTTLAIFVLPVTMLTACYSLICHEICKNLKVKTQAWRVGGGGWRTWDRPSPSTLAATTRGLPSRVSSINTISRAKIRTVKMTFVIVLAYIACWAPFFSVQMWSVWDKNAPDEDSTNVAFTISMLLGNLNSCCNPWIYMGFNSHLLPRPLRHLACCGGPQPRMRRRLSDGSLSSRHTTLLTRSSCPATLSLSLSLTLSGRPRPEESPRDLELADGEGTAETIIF

Row | Substance | IC50 [1] | IC50 [2] | IC50 [3] | IC50 [4] | EC50, FLIPR calcium assay [5] | EC50, IP-One HTRF assay [5] | Emax, FLIPR calcium assay [5] | Emax, IP-One HTRF assay [5] | EC50, FLIPR calcium assay [6] | EC50, IP-One HTRF assay [6] | Emax, FLIPR calcium assay [6] | Emax, IP-One HTRF assay [6] | EC50, FLIPR calcium assay [7] | EC50, IP-One HTRF assay [7] | Emax, FLIPR calcium assay [7] | Emax, IP-One HTRF assay [7]
1 | [Te-Te]-Oxytocin (peptide) | 8 nM | – | – | – | 11.3 nM | 13.3 nM | 86% | 98% | 4280 nM | > 10000 nM | – | – | – | – | – | –
2 | dOT (peptide) | 1.7 nM | – | – | – | 0.39 nM | 0.71 nM | 89% | 100% | 46.1 nM | – | 54% | – | – | – | – | –
3 | [CH2-S]-OT (peptide) | – | – | – | – | – | – | – | 64% | – | – | – | 75% | – | – | – | –

Second part, the substance after the results:

Row | IC50 [1] | IC50 [2] | IC50 [3] | IC50 [4] | EC50, FLIPR calcium assay [5] | EC50, IP-One HTRF assay [5] | Emax, FLIPR calcium assay [5] | Emax, IP-One HTRF assay [5] | EC50, FLIPR calcium assay [6] | EC50, IP-One HTRF assay [6] | Emax, FLIPR calcium assay [6] | Emax, IP-One HTRF assay [6] | EC50, FLIPR calcium assay [7] | EC50, IP-One HTRF assay [7] | Emax, FLIPR calcium assay [7] | Emax, IP-One HTRF assay [7] | Substance
4 | 538 nM | 1760 nM | 3350 nM | 127 nM | 1.39 nM | 18 nM | 86% | 94% | 35.9 nM | 269 nM | 100% | 70% | 7.75 nM | 510 nM | 82% | 103% | [C1,6U]-OT (peptide)
5 | – | – | – | – | – | – | – | – | – | – | – | – | 2460 nM | > 100000 nM | 63% | – | [C1,6U]-OT-OH (peptide)
